Laboratory results taken from paper PMC10998907 (Nature Communications, 2024).

Molecular target: NiV-RBP ectodomain homotetramer (Nipah virus, Malaysia (deposit 8K3C …, UniProt Q9IH62))
Experiment: cryo-EM structure
Conditions: both partners purified

Chain of NiV-RBP ectodomain homotetramer (Nipah virus, Malaysia (Q9IH62 whole entry, looked up, the tested form may be a part): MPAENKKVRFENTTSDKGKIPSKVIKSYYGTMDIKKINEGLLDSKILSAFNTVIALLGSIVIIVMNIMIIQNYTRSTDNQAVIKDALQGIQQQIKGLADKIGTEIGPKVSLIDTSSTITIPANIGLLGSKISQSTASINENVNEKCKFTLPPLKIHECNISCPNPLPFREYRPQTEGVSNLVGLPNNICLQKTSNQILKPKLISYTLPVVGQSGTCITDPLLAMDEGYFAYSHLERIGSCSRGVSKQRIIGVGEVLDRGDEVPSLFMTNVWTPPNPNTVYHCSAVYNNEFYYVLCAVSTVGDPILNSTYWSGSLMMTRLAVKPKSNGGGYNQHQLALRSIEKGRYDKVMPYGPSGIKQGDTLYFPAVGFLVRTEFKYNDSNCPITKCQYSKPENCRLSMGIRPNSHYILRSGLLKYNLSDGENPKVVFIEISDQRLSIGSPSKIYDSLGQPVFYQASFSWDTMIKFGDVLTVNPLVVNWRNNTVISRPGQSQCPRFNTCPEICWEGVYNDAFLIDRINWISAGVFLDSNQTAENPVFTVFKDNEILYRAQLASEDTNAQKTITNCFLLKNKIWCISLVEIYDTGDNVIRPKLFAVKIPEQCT

B1: 41-6 Fab fragment (Fab, V domains shown)
VH: EVQLVQSGGGLVQPGGSLRLSCAASGFTVSSNYMSWVRQAPGKGLEWVSAISGSGGSTYYADSVKGRFTISRDNSKNTLYLQMNSLRAEDTAVYYCARDREDIVVVPAPRGYYYYYYMDVWGQGTTVTVSS
VL: QSVVTQPPSVSAAPGQKVTISCSGSSSNIGTNHLSWYQQVPGTAPKLLIYDNNKRPSGIPDRFSGSKSGTSASLAISGLQSEDEADYYCATWDDSLHAWVFGGGTKLTVL
stoichiometry N: 3
